For one series, the target named is T1, DC-SIGN-Fc (Homo sapiens, UniProt Q9NNX6).
T1 construct: the extracellular portion of DC-SIGN (amino acids 64 to 404)
T1 sequence (Q9NNX6 64-404): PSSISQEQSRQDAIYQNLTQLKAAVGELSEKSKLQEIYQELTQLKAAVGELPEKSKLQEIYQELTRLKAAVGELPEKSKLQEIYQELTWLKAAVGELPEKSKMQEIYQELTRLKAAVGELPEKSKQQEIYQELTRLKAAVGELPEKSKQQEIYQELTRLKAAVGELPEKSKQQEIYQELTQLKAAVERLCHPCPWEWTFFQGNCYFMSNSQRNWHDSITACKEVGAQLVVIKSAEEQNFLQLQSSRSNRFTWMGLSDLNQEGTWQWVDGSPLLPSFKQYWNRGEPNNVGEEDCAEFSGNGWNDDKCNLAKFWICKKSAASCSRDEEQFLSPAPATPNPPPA
Nature of the series: DC-SIGN-Fc binding ELISA. The procedure:
DC-SIGN-Fc binding ELISA. The DC-SIGN-Fc chimera contained the extracellular portion of DC-SIGN (amino acids 64 to 404) fused at the C-terminus to a human immunoglobulin (Ig) G1 Fc fragment and has been previously described (Geijtenbeek et al, 2002). Human milk or human milk compounds were diluted in 0.2M NaHCO3, coated on ELISA plates (maxisorb plate; Nunc) and incubated overnight at 4° C. or 2 hours at 37° C. This was followed by blocking with TSM containing 1% BSA for 30 minutes at 37° C. before addition of soluble DC-SIGN-Fc (5 μg/ml) for 2 hours at RT, the binding was determined by incubation of a peroxidase labeled anti-IgG1 antibody for 30 minutes at RT. DC-SIGN-Fc binding specificity was determined by pre-incubation of the DC-SIGN-FC with either 50 μg/ml DC-SIGN specific mouse antibody AZN-D1 (Geijtenbeek et al, 2000 a) or 10 mM EGTA. Single-cycle-replication transmission assay. The assay was performed as previously described (Groot et al, 2005). In short mDCs and iDCs were incubated in a 96-well-plate (35−50×10^3 DC/well) with human milk for 30 minutes at 37° C. before addition of the virus (5 ng p24/well), which was incubated for 2 hours at 37° C. The DCs were washed twice with PBS before addition of 50×10^3 LuSIV cells. After 24 hours, LuSIV cells were harvested and resuspended in 50 μl lysis buffer (25 mM Tris-Cl 7.8, 2 mM DTT, 2 mM CDTA, 10% glycerol, 1% Triton X100). The cells were then incubated for 45 minutes at room temperature while shaking, followed by 10 minutes centrifugation at 3200×g. The supernatant was transferred to a white-solid 96 well plate (Corning Costar), and 150 μl of lucibuffer (100 μg/ml BSA, 6.6 mM ATP, 15 mM MgSO4, 25 mM glycylglycine) was added. 100 μl of DE(−)Luciferin (Roche Diagnostics GmbH) was injected per well (0.28 mg/ml lucibuffer excluding ATP). 50×10^3 LuSIV cells grown without DC or HIV-1 were used to obtain the background luciferase value.
DC-SIGN-Fc binding ELISA. The DC-SIGN-Fc chimera contained the extracellular portion of DC-SIGN (amino acids 64 to 404) fused at the C-terminus to a human immunoglobulin (Ig) G1 Fc fragment which has been previously described (Geijtenbeek et al, 2002). Human milk or BSSL were diluted in 0.2 M NaHCO3, coated on ELISA plates (maxisorb plate; Nunc) and incubated overnight at 4° C. or 2 hours at 37° C. This was followed by blocking with TSM containing 1% BSA for 30 minutes at 37° C. before addition of soluble DC-SIGN-Fc (5 μg/ml) for 2 hours at RT, the binding was determined by incubation of a peroxidase labeled anti-IgG1 antibody for 30 minutes at RT. DC-SIGN-Fc binding specificity was determined by pre-incubation of the DC-SIGN-Fc with either 50 μg/ml DC-SIGN specific mouse antibody AZN-D1 (Geijtenbeek et al, 2000 a) or 10 mM EGTA.
Background: In an ELISA, binding on a coated surface is turned into a signal by an enzyme label.

Series [1] has as its system DC-SIGN mediated transfer of HIV-1 by Raji-DC-SIGN cells to CD4+ T-lymphocytes. Nature of the series: DC-SIGN mediated HIV-1 transfer assay (Raji-DC-SIGN transfer culture assay). Type of series: cell-based. The settings on record: BSSL isolated from S4, at 30 μg/ml and 1.2 μg/ml; P<0.05. Here is the method:
DC-SIGN mediated HIV-1 transfer assay. The Raji and Raji-DC-SIGN cells were plated at a concentration of 2×10^4 cells/well in a 96 well format. Dilutions of human milk or human milk compounds were made in PBS containing 10% FCS and spiked with 3.7log TCID50/ml of the appropriate virus before addition to the Raji-DC-SIGN cells. As controls PBS containing 10% FCS was spiked with the same TCID50/ml of the corresponding virus before addition to Raji or Raji-DC-SIGN cells. After incubation the culture was washed with PBS before addition of CD4^+ enriched T-lymphocytes at a concentration of 1×10^5 cells/well with p24 determined on day 7. DC-SIGN specific antibody binding after exposure to human milk. […] The cells were washed and resuspended in 100 μl TSM containing 0.5% bovine serum albumin, (BSA Fraction V, Fatty Acid-Free) (Calbiochem) and the adhesion was measured by flow cytometry (BD Biosciences).
DC-SIGN mediated HIV-1 transfer assay. […] After a two hour incubation the culture was washed with PBS before addition of CD4^+ enriched T-lymphocytes at a concentration of 1×10^5 cells/well with p24 values determined on day 7.

B1: BSSL: Bile salt stimulated lipase glycoprotein isolated from human milk (S4) (protein, UniProt P19835 21-753, looked up)
Bile salt-activated lipase: AKLGAVYTEGGFVEGVNKKLGLLGDSVDIFKGIPFAAPTKALENPQPHPGWQGTLKAKNFKKRCLQATITQDSTYGDEDCLYLNIWVPQGRKQVSRDLPVMIWIYGGAFLMGSGHGANFLNNYLYDGEEIATRGNVIVVTFNYRVGPLGFLSTGDANLPGNYGLRDQHMAIAWVKRNIAAFGGDPNNITLFGESAGGASVSLQTLSPYNKGLIRRAISQSGVALSPWVIQKNPLFWAKKVAEKVGCPVGDAARMAQCLKVTDPRALTLAYKVPLAGLEYPMLHYVGFVPVIDGDFIPADPINLYANAADIDYIAGTNNMDGHIFASIDMPAINKGNKKVTEEDFYKLVSEFTITKGLRGAKTTFDVYTESWAQDPSQENKKKTVVDFETDVLFLVPTEIALAQHRANAKSAKTYAYLFSHPSRMPVYPKWVGADHADDIQYVFGKPFATPTGYRPQDRTVSKAMIAYWTNFAKTGDPNMGDSAVPTHWEPYTTENSGYLEITKKMGSSSMKRSLRTNFLRYWTLTYLALPTVTDQEATPVPPTGDSEATPVPPTGDSETAPVPPTGDSGAPPVPPTGDSGAPPVPPTGDSGAPPVPPTGDSGAPPVPPTGDSGAPPVPPTGDSGAPPVPPTGDSGAPPVPPTGDSGAPPVPPTGDAGPPPVPPTGDSGAPPVPPTGDSGAPPVTPTGDSETAPVPPTGDSGAPPVPPTGDSEAAPVPPTDDSKEAQMPAVIRF
Regarding B1, the DC-SIGN-Fc binding entry with DC-SIGN-Fc (BSSL at 30 μg/ml, 3 μg/ml and 0.3 μg/ml, P<0.01) is given as “binding”. Moreover, the “effect of trypsinization of purified BSSL” value in the series with DC-SIGN-Fc (binding not fully alleviated, data not shown) is on record as “trypsin sensitive”. In addition, in the series with DC-SIGN-Fc (data not shown), the “effect of heat treatment of purified BSSL” value was “heat resistant”. In series [1], the “inhibition of DC-SIGN mediated HIV-1 transfer” value is given as “significant inhibition”.
